# Measured values taken from US20130195836A1.
# Target: human macrophage mannose receptor C type 1 (MRC1) (human) (UniProt P22897)
# Assay: flow cytometry on stable pool of MRC1-transfected HT1080 cells compared to untransfected HT1080 cells
# UniProt P22897, sequence (P22897 19-1456 limits assumed): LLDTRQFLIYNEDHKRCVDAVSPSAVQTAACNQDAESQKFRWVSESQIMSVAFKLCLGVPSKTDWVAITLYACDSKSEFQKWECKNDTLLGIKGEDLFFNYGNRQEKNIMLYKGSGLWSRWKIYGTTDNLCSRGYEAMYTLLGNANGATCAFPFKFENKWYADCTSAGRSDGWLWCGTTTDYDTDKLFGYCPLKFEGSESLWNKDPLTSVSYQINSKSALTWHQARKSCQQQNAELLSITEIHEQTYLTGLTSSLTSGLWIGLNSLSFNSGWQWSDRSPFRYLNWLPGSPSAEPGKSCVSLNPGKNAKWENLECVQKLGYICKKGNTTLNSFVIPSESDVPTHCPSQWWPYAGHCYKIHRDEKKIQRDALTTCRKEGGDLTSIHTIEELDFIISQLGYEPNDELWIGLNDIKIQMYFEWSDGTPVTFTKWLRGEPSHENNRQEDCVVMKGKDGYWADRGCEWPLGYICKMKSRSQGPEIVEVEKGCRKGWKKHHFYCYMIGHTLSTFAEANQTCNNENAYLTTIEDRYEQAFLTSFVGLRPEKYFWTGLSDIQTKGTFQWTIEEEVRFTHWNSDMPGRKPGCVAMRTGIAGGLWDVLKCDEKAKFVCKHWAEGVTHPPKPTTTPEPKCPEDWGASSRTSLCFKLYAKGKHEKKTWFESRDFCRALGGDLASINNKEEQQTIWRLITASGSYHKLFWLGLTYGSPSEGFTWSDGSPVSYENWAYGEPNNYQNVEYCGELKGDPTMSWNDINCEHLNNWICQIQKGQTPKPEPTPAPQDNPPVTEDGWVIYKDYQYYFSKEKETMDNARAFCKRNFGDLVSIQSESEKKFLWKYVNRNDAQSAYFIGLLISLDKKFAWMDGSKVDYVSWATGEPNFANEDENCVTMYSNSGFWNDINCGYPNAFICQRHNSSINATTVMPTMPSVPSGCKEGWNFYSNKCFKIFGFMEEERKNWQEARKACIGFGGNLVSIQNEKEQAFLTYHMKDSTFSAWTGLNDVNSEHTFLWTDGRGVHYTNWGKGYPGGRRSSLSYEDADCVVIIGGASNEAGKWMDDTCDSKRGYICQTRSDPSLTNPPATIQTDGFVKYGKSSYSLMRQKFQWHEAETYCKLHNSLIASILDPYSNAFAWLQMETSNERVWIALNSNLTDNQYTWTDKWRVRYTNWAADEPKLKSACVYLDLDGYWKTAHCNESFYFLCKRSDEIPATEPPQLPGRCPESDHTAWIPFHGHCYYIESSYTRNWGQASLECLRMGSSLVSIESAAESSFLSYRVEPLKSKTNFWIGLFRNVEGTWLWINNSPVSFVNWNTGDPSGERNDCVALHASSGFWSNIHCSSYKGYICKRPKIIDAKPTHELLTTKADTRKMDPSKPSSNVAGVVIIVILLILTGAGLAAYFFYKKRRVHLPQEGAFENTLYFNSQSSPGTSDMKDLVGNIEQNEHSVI
substance,measurement,value
FITC conjugated Mouse anti-human MRC1 antibody (BD Biosciences Cat #551135),Relative Fluorescence Intensity (RFI) above the background,1.5 logs
